Experimental data from US11371056B2, “HPPD variants and methods of use” (BASF Agricultural Solutions Seed US LLC, priority 2017, dated 2022).

System: Pseudomonas fluorescens HPPD polypeptide (wild-type and mutants)
Assay: Coupled HPPD activity assay: turnover and residual turnover in crude HPPD polypeptide extracts with and without Cmpd. 1
Format: biochemical
Conditions: for Turnover: absence of Cmpd. 1; for Turnover / Residual turnover: changes in absorbance (OD) at 320 nm in the coupled assay, 30 min; for Residual turnover: presence of 100 μM Cmpd. 1; for Residual turnover [%]: 100 μM Cmpd. 1, normalised to turnover without inhibitor
Protocol: For the generation of crude HPPD polypeptide extract in micro titer plates (MTP) for the determination of residual activity in inhibition assays, cells were grown in 40 or 150 μl LB medium containing 1% Glucose (Merck, Darmstadt, Germany) and 100 μg/ml ampicillin in a standard 96 well plate (Thermo Fisher Scientific, Waltham, USA) incubated for about 18 h in a humidity incubator at 37° C. 30 μl of this starter culture were added to 600 μl LB medium containing 100 μg/ml ampicillin and 150 mM Hepes (Merck, Darmstadt, Germany) as inoculum for the expression culture in 96 well plates (2 ml deep wells; HJ Bioanalytik, Erkelenz, Germany). The plates were sealed by an aluminium foil, and cells were incubated for 5 h at 37° C. on a plate shaker at 750 rpm. The expression was induced by addition of IPTG in a final concentration of 1 mM followed by further sealed incubation for about 18 h at 30° C. on a plate shaker at 750 rpm.
Cells were harvested by centrifugation at 4° C., 2500 g for 15 min discarding the supernatant. Cell pellets were stored at −80° C. and lysed in 250 μl 1× BugBuster® (Merck, Darmstadt, Germany) in 140 mM Tris (pH 7.8), with 1:25000 diluted BNase® (Qiagen, Hilden, Germany) by incubation of the resuspended cells for 30 min at 4° C. and 1000 rpm. Lysates were clarified by centrifugation for 15 min at 4° C., 2500 g, and 150 μl supernatant were transferred in standard 96 well plate (Thermo Fisher Scientific, Waltham, USA) for subsequent testing in quadruplets.
The activity of HPPD polypeptides was determined in absence or presence of HPPD inhibitors using the coupled HPPD activity assay (FIG. 1).
For the determination of the residual activity, the apparent kinetic constant (kapp) of the determined substrate conversion was measured as kinetic changes in absorbance (OD) at 320 nm in a coupled assay, in that homogentisate (HGA) formed by HPPD from HPP is directly converted into the well absorbing molecule maleylacetoacetate (MAA) by a second enzyme homogentisate dioxygenase (HGD), applied in excess uniformly in all assays (see FIG. 1). The measurements were performed in 384 micro titer plates (Greiner Bio-One GmbH, Frickenhausen, Germany) by plate readers (Tecan infinite M1000 or M1000PRO, Tecan, Männedorf, Switzerland). The kcat/kM ratio of an enzymatic activity is proportional to the apparent kinetic constant kapp and is proportional to kcat/kM*[E] ([E]=enzyme concentration). […] As both kapp measurements in the presence and absence of inhibitor were performed by use of the identical enzyme sample, crude or purified, and thereby at the same enzyme concentration, the enzyme concentration eliminates from the calculation of residual activity and the ratio of both kapp directly indicates the change of kM due to the inhibition.
The assay solution used for determination of residual activities in raw HPPD polypeptide samples was composed by 200 mM sodium phosphate (Merck, Darmstadt, Germany, pH 7.0), 5 mM MgCl2 (Merck, Darmstadt, Germany), 20 mM ascorbate (Sigma-Aldrich, St. Louis, USA), 1 mM DTT (Sigma-Aldrich, St. Louis, USA), 0.1% Pluronic F-68 (Sigma-Aldrich, St. Louis, USA), 40 μM FeSO4 (Sigma-Aldrich, St. […] Louis, USA) and equilibrated for 20 min on ice.

B1: SEQ ID NO:3 (protein)
chain: MADLYENPMGLMGFEFIEFASPTPGTLEPIFEIMGFTKVATHRSKNVHLYRQGEINLILNNEPNSIASYFAAEHGPSVCGMAFRVKDSQKAYNRALELGAQPIHIDTGPMELNLPAIKGIGGAPLYLIDRFGEGSSIYDIDFVYLEGVERNPVGAGLKVIDHLTHNVYRGRMVYWANFYEKLFNFREARYFDIKGEYTGLTSKAMSAPDGMIRIPLNEESSKGAGQIEEFLMQFNGEGIQHVAFLTDDLVKTWDALKKIGMRFMTAPGDEYYEMLEGRLPDHGEPVDQLQARGILLDGSSVEGDKRLLLQIFSEKLMGPVFFEFIQRKGDDGFGPDSFKVLFESIERDQVRRGVLTAD
modifications: mutant HPPD polypeptide
Which Turnover does the source give for B1 here?
Its Turnover is 0.013.

What about the Residual turnover of the same molecule?
Its Residual turnover is 0.012.

B2: SEQ ID NO:6 (protein)
chain: MADLYENPMGLMGFEFIEFASPTPGTLEPIFEIMGFTKVATHRSKNVHLYRQGEINLILNNEPNSIASYFAAEHGPSVCGMAFRVKDSQKAYNRALELGAQPIHIDTGPMELNLPAIKGIGGAPLYLIDRFGEGSSIYDIDFVYLEGVERNPVGAGLKVIDHLTHNVYRGRMVYWANFYEKLFNFREARYFDIKGEYTGLTSKAMSAPDGMIRIPLNEESSKGAGQIEEFLMQFNGEGIQHVAFLTDDLVKTWDALKKIGMRFMTAPGDEYYEMLEGRLPDHGEPVDQLQARGILLDGSSVEGDKRLLLQIFSETLMGPVFFEFIQRKGDDGFGPDSFKVLFESIERDQVRRGVLTAD
modifications: mutant HPPD polypeptide
Which “Residual turnover [%]” value does the source give for B2 here?
The value was 33%.

What about the Turnover of the same molecule?
The Turnover was 0.159.

And the Residual turnover?
Its Residual turnover is 0.052.

B3: SEQ ID NO:7 (protein)
chain: MADLYENPMGLMGFEFIEFASPTPGTLEPIFEIMGFTKVATHRSKNVHLYRQGEINLILNNEPNSIASYFAAEHGPSVCGMAFRVKDSQKAYNRALELGAQPIHIDTGPMELNLPAIKGIGGAPLYLIDRFGEGSSIYDIDFVYLEGVERNPVGAGLKVIDHLTHNVYRGRMVYWANFYEKLFNFREARYFDIKGEYTGLTSKAMSAPDGMIRIPLNEESSKGAGQIEEFLMQFNGEGIQHVAFLTDDLVKTWDALKKIGMRFLTAPGDEYYEMLEGRLPDHGEPVDQLQARGILLDGSSVEGDKRLLLQIFSEKLMGPVFFEFIQRKGDDGFGPDSFKVLFESIERDQVRRGVLTAD
modifications: mutant HPPD polypeptide
How did the “Residual turnover [%]” value turn out when B3 was run?
The value was 59%.

And the Turnover?
The Turnover was 0.126.

And the Residual turnover?
The Residual turnover was 0.074.

B4: SEQ ID NO:4 (protein)
chain: MADLYENPMGLMGFEFIEFASPTPGTLEPIFEIMGFTKVATHRSKNVHLYRQGEINLILNNEPNSIASYFAAEHGPSVCGMAFRVKDSQKAYNRALELGAQPIHIDTGPMELNLPAIKGIGGAPLYLIDRFGEGSSIYDIDFVYLEGVERNPVGAGLKVIDHLTHNVYRGRMVYWANFYEKLFNFREARYFDIKGEYTGLTSKAMSAPDGMIRIPLNEESSKGAGQIEEFLMQFNGEGIQHVAFLTDDLVKTWDALKKIGMRFMTAPGDEYYEMLEGRLPDHGEPVDQLQARGILLDGSSVEGDKRLLLQIFSEQLMGPVFFEFIQRKGDDGFGPDSFKVLFESIERDQVRRGVLTAD
modifications: mutant HPPD polypeptide
What does the source list for B4?
Residual turnover [%]: 50%; Turnover: 0.121; Residual turnover: 0.06

B5: SEQ ID NO:9 (protein)
chain: MADLYENPMGLMGFEFIEFASPTPGTLEPIFEIMGFTKVATHRSKNVHLYRQGEINLILNNEPNSIASYFAAEHGPSVCGMAFRVKDSQKAYNRALELGAQPIHIDTGPMELNLPAIKGIGGAPLYLIDRFGEGSSIYDIDFVYLEGVERNPVGAGLKVIDHLTHNVYRGRMVYWANFYEKLFNFREARYFDIKGEYTGLTSKAMSAPDGMIRIPLNEESSKGAGQIEEFLMQFNGEGIQHVAFLTDDLVKTWDALKKIGMRFLTAPGDEYYEMLEGRLPDHGEPVDQLQARGILLDGSSVEGDKRLLLQIFSETLMGPVFFEFIQRKGDDGFGPDSFKVLFESIERDQVRRGVLTAD
modifications: mutant HPPD polypeptide
Which “Residual turnover [%]” value does the source give for B5 here?
Its value is 65%.

And the Turnover?
Its Turnover is 0.109.

What about the Residual turnover of the same molecule?
Its Residual turnover is 0.071.

B6: SEQ ID NO:8 (protein)
chain: MADLYENPMGLMGFEFIEFASPTPGTLEPIFEIMGFTKVATHRSKNVHLYRQGEINLILNNEPNSIASYFAAEHGPSVCGMAFRVKDSQKAYNRALELGAQPIHIDTGPMELNLPAIKGIGGAPLYLIDRFGEGSSIYDIDFVYLEGVERNPVGAGLKVIDHLTHNVYRGRMVYWANFYEKLFNFREARYFDIKGEYTGLTSKAMSAPDGMIRIPLNEESSKGAGQIEEFLMQFNGEGIQHVAFLTDDLVKTWDALKKIGMRFLTAPGDEYYEMLEGRLPDHGEPVDQLQARGILLDGSSVEGDKRLLLQIFSEQLMGPVFFEFIQRKGDDGFGPDSFKVLFESIERDQVRRGVLTAD
modifications: mutant HPPD polypeptide
For B6, which “Residual turnover [%]” value is on record?
Its value is 66%.

And the Turnover?
The Turnover was 0.124.

And the Residual turnover?
Its Residual turnover is 0.082.

B7: SEQ ID NO:5 (protein)
chain: MADLYENPMGLMGFEFIEFASPTPGTLEPIFEIMGFTKVATHRSKNVHLYRQGEINLILNNEPNSIASYFAAEHGPSVCGMAFRVKDSQKAYNRALELGAQPIHIDTGPMELNLPAIKGIGGAPLYLIDRFGEGSSIYDIDFVYLEGVERNPVGAGLKVIDHLTHNVYRGRMVYWANFYEKLFNFREARYFDIKGEYTGLTSKAMSAPDGMIRIPLNEESSKGAGQIEEFLMQFNGEGIQHVAFLTDDLVKTWDALKKIGMRFMTAPGDEYYEMLEGRLPDHGEPVDQLQARGILLDGSSVEGDKRLLLQIFSERLMGPVFFEFIQRKGDDGFGPDSFKVLFESIERDQVRRGVLTAD
modifications: mutant HPPD polypeptide
What does the source list for B7?
Residual turnover [%]: 44%; Turnover: 0.162; Residual turnover: 0.071

B8: SEQ ID NO:11 (protein)
chain: MADLYENPMGLMGFEFIEFASPTPGTLEPIFEIMGFTKVATHRSKNVHLYRQGEINLILNNEPNSIASYFAAEHGPSVCGMAFRVKDSQKAYNRALELGAQPIHIDTGPMELNLPAIKGIGGAPLYLIDRFGEGSSIYDIDFVYLEGVERNPVGAGLKVIDHLTHNVYRGRMVYWANFYEKLFNFREARYFDIKGEYTGLTSKAMSAPDGMIRIPLNEESSKGAGQIEEFLMQFNGEGIQHVAFLTDDLVKTWDALKKIGMRFMTAPGDEYYEMLEGRLPDHGEPVDQLQARGILLDGSSVEGDKRLLLQIFSEQLMGPVFFEFIQRKGDDGFGPDSFKVLFEQIERDQVRRGVLTAD
modifications: mutant HPPD polypeptide
B8 was tested. Which “Residual turnover [%]” value did it give?
Its value is 46%.

What about the Turnover of the same molecule?
Its Turnover is 0.183.

What about the Residual turnover of the same molecule?
Its Residual turnover is 0.085.

B9: SEQ ID NO:10 (protein)
chain: MADLYENPMGLMGFEFIEFASPTPGTLEPIFEIMGFTKVATHRSKNVHLYRQGEINLILNNEPNSIASYFAAEHGPSVCGMAFRVKDSQKAYNRALELGAQPIHIDTGPMELNLPAIKGIGGAPLYLIDRFGEGSSIYDIDFVYLEGVERNPVGAGLKVIDHLTHNVYRGRMVYWANFYEKLFNFREARYFDIKGEYTGLTSKAMSAPDGMIRIPLNEESSKGAGQIEEFLMQFNGEGIQHVAFLTDDLVKTWDALKKIGMRFMTAPGDEYYEMLEGRLPDHGEPVDQLQARGILLDGSSVEGDKRLLLQIFSEKLMGPVFFEFIQRKGDDGFGPDSFKVLFEQIERDQVRRGVLTAD
modifications: mutant HPPD polypeptide
B9 was tested. Which Turnover did it give?
Its Turnover is 0.018.

What about the Residual turnover of the same molecule?
The Residual turnover was 0.021.
